Results taken from article PMC8772750.
Like-named read-outs stand apart in the source and are kept apart here.

Legend:
[1] = biological target: Variegin (Amblyomma variegatum) (UniProt P85800); conditions: cited from earlier work
[2] = biological target: Variegin (Amblyomma variegatum) (UniProt P85800); conditions: cited from earlier work; remark: listed apart in the source
human α-thrombin (human) [3] = biological target: human α-thrombin (human) (UniProt P00734); assay: enzyme inhibition kinetics (thrombin amidolytic assay with S-2238); tight-binding assay: inhibitor incubated with 500 pM thrombin for 30 min at 37 °C, then S-2238 added to 50-500 µM; 50 mM Tris-HCl pH 8.4, 150 mM NaCl, 0.1% PEG 6000; Morrison equation for tight-binding competitive inhibitors, apparent Ki' plotted against substrate concentration to obtain Ki
human α-thrombin (human) [4] = biological target: human α-thrombin (human) (UniProt P00734)

Row | Substance | Ki [1] | Ki [2] | Ki (human α-thrombin (human) [3]) | IC50 of inhibition of thrombin amidolytic activity (500 pM thrombin, 100 µM S-2238), preincubation 0 min (human α-thrombin (human) [4]) | IC50 of inhibition of thrombin amidolytic activity (500 pM thrombin, 100 µM S-2238), preincubation 30 min (human α-thrombin (human) [4])
1 | Thrombin (from UniProt P00734) | 0.0104 nM | 14 nM |  |  | 
2 | recombinant anophelin from Anopheles albimanus (natural protein) |  |  | 0.0994 nM | 6.35 nM | 6.78 nM
3 | recombinant haemadin from the leech Haemadipsa sylvestris (natural protein) |  |  | 0.000237 nM | 22 pM | 33.1 pM
4 | recombinant hirudin-1 from Hirudo medicinalis (desirudin) (from UniProt P01050 1-65) (natural protein) |  |  | 0.000217 nM | 21.5 pM | 28 pM
5 | recombinant variegin from the tick Amblyomma variegatum (from UniProt P85800 1-32) (peptide) |  |  | 0.372 nM | 14.6 nM | 18.4 nM
